Assay results from patent publication US20260062466A1.

Tests used:
Assay in all cases: cell-based or functional assay
[1] = target: CHIKV-37997 (virus) (Chikungunya virus strain 37997) (UniProt Q5XXP3)
[2] = target: CHIKV-LR 2006 (virus) (Chikungunya virus strain LR 2006)
[3] = target: ONNV (O'nyong'nyong virus, MP30) envelope glycoproteins (O'nyong'nyong virus strain MP30)

Sequence of CHIKV-37997 (virus) (Chikungunya virus strain 37997) (Q5XXP3 326-748 limits assumed, chain 1 of 2): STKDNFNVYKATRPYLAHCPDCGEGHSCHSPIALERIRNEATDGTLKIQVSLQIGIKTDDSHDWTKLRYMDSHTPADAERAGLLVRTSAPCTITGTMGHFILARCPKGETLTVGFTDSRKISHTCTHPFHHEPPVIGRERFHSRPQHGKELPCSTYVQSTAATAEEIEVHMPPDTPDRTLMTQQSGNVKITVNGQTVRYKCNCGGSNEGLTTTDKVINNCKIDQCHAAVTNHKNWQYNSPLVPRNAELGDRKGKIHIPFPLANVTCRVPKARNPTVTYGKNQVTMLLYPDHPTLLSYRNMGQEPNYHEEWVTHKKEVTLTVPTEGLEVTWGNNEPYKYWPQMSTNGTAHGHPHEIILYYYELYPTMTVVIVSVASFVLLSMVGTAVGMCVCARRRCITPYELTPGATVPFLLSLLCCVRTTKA
Sequence of CHIKV-37997 (virus) (Chikungunya virus strain 37997) (Q5XXP3 810-1248 limits assumed, chain 2 of 2): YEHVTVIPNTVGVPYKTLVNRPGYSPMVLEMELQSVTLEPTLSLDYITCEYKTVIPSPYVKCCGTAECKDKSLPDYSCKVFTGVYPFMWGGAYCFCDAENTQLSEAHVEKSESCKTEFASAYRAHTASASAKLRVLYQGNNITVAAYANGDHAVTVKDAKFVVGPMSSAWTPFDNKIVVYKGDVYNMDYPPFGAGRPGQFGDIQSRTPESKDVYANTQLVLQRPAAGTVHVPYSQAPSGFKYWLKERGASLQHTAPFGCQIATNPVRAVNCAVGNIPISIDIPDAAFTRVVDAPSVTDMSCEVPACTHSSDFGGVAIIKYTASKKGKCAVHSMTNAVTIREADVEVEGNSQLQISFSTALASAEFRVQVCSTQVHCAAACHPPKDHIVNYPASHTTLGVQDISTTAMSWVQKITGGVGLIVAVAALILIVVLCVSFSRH

Binder | FRNT neutralisation, 37997 EC50 [1] [mg/L] | FRNT neutralisation, LR 2006 EC50 [2] [mg/L] | FRNT neutralisation of ONNV, EC50 [3] [mg/L]
516.F07 (antibody, V domains shown) VH: EVQLVQSGAEVKKPGESLKISCKGSGYRFTSYWIAWVRQMPGKGLECMGIIYPGDSDTRYSPSFQGQVTISVDKSISTAYLQWSSLKASDTAMFYCARHNNNWSLQGYFDYWGQGTLVTVSS VL: PSALTQPASVSGSPGQSITISCTGTSSDVGGYNYVSWYQQHPGKAPKLMIYDVSNRSSGVSNRFSGSKSGNTASLTISGLQAEDEADYYCSSYTGSSTSNYVFGTGTKVTVL | 0.004 | 0.031 | –
516.H07 (antibody, V domains shown) VH: EVQLVESGGGLVQPGGSLRLSCAASGFTFSSYEMNWVRQAPGKGLEWVSYMSYTGSTIYYADSVKGRFTISRDNGKNSLYLQMNSLRVEDTAVYYCARGGVVVAPTYFDYWGQGTLVTVSS VL: QSVLTQPPSVSGAPGQRVTISCTGSSSNIGAGYDVHWYQQLPGTAPKLLIYHNNNRPSGVPDRFSASKSGTSASLAITGLQAEDEADYYCQSYDSSLSGWVFGGGTKLTVL | 0.91 | 0.061 | < 0.05
520.D02 (antibody, V domains shown) VH: QVQLVQSGSELQKPGASVKVSCKASGYTFTENAIIWVRQAPGQGLEWMGRIIRYPGRPTIAQGFTGRFGFSLDTSINTAYLEISNLKAEDTAFFYCAREYCDSSSCSSFDYWGQGTLVTVSS VL: QSVLTQPPSASGSPGQSVTISCTGTNNDVGIYSYVSWYQQHPGKAPKLMIYEVSKRPSGVPDRFSGSKSGNTASLTVSGLQADDEADYYCSSYAGSNSYVFGSGTKVTVL | 0.002 | 0.005 | –
506.C01 (antibody, V domains shown) VH: QVQLQESGPGLVKPSQTLSLTCTVSGGSISSDDYYWTWIRLPPGKGLEWIGYIFYTGGTYYNPSLKSRVTISLDRSKNQFSLKLSSVTAADTAVYFCARAPETYCSTTNCYKGYFDSWGQGTLVTVSS VL: DIQMTQSPSSVSASVGDRVTITCRASQGISSWLGWYQQKPGKAPKLLIYAASSLQSGVPSRFSGSGSGTDFTLTISSLQPEDFATYYCQQANSFPRTFGQGTKVEIK | – | – | < 0.05
516.H09 (antibody, V domains shown) VH: QLQLQESGPGLVKPSETLSLTCTVSGGSISSSSYYWGWIRQPPGKGLEWIGSIYYSGSTYYNPSLKSRVTISVDTSKNQFSLKLSSVTAADTAVYYCARHSYCSGGSCYLAPLGDWGQGTLVTVSS VL: SYVLTQPPSVSVAPGKTARITCGGNNIGSKSVHWYQQKPGQAPVLVIYYDSDRPSGIPERFSGSNSGNTATLTISRVEAGDEADYYCQVWDSSSDFYVFGTGTKVTVL | 0.526 | 0.182 | –
516.D09 (antibody, V domains shown) VH: QVQLVQSGAEVKKPGSSVKVSCKAFGGTFSSSAITWVRQAPGQGLEWMGRIIPIFGTANYAQKFQGRVTITADKSTTTAYMELSSLRSEDTAVYYCALKADSYCSGSSCYPSFDYWGQGTLVTVSS VL: SYVLTQPPSVSVAPGKTARITCGGNNIGSKSVHWYQQRPGQAPVLVVYDDSDRPSGIPERFSGSNSGNTATLTISRVEAGDEADYYCQVWDSSSDQEVFGGGTKLTVL | 0.35 | 0.248 | –
